Here are results for seven molecules from US8945864B2, “Method of determining 1,5-anhydroglucitol, and reagent composition for determining 1,5-anhydroglucitol” (Ikeda Food Research Co., Ltd., priority 2006, dated 2015).

As a reminder, the Km is the substrate concentration at which the rate is half of its maximum.

The target of one series is sorbose dehydrogenase (Sinorhizobium meliloti, UniProt Q92YU0). Nature of the series: Inhibitor test: additive in the reaction solution for the activity measurement. Type of series: biochemical, Sinorhizobium sp. 97507.
Substrate in series [1]: OCC1(O)OC[C@H](O)[C@@H](O)[C@@H]1O
Nature of the series: Km value of sorbose dehydrogenase. Format: biochemical, Sinorhizobium sp. 97507. To be noted: other: Km of the sorbose dehydrogenase to the substrate; pH 7.0; 37.0 °C. The protocol:
(§1) One mL of a 0.1 M potassium phosphate buffer, pH 7.0, 1.0 mL of 1.0 M L-sorbose, 0.14 mL of 3 mM 2,6-dichlorophenol indophenol (DCIP), 0.2 mL of 3 mM 1-methoxy-5-methylphenazinium methyl sulfate, and 0.61 mL of water were added to a 3 mL quartz cell, and the quartz cell was set to a spectrophotometer equipped with a thermostat cell holder, and incubated at 37° C. for ten minutes. Then, 0.05 mL of the enzyme solution was added to the quartz cell, and changes in absorbance of DCIP at 600 nm (AABS600/min) was measured at 37° C. As the molar extinction coefficient of DCIP at pH 7.0 is known as 16.3 mM^−1, and the amount of enzyme that reduced 1 μmol of DCIP for one minute is defined as one unit. Following the definition, the concentration of enzyme activity was calculated based on the following equation. enzyme activity (units/mL)=(−ΔABS600/min×3.0×dilution rate)/(16.3×1.0×0.05)
(§2) Measurement conditions in the above “method of measuring enzyme activity” were suitably modified as necessary, and the optimal pH, pH stability, optimal temperature, temperature stability, substrate specificity, Km value, total molecular weight, subunit molecular weight, inhibitor, and product of the enzyme reaction were identified. The properties of the enzyme were evaluated in accordance with the following tests.
[…]. […]

Substrate in series [2]: OC[C@H]1OC[C@H](O)[C@@H](O)[C@@H]1O
The series is described as follows: Km value of sorbose dehydrogenase. Format: biochemical, Sinorhizobium sp. 97507. To be noted: other: Km of the sorbose dehydrogenase to the substrate; pH 7.0; 37.0 °C. The protocol:
as §1, §2
[…]. […]

The nature of series [3]: Optimal pH of sorbose dehydrogenase. Format: biochemical. The note with it: buffers pH 3.71-9.11, 33.3 mM; FIG. 3.
Series [4] is described as follows: Optimal temperature of sorbose dehydrogenase. Format: biochemical. The note with it: 50 mM potassium phosphate buffer, pH 7.0; 35° C. to 70° C.; FIG. 5.
Series [5] is described as follows: Temperature stability of sorbose dehydrogenase. Format: physicochemical. The note with it: pH 7.0, FIG. 6.
[6] abbreviates: additive final concentration 1.0 mM, control without additive = 100%.

Read-outs that look alike come from different tables or passages of the source. Where only a bound is given, the exact number is not on record here.

With `[Cl-].[Cl-].[Zn+2]` [ZnCl2], the “Relative activity (%)” value at sorbose dehydrogenase (setting [6]) is 98%. The same measure, in the same setting: the figure for `O=C(O)C(O)C(O)C(=O)O` (stereo not drawn) [meso-tartaric acid] is 94%. Still for that read-out and setting: the figure for Acriflavin is 66%. In the case of CoCl2, at sorbose dehydrogenase, the “Relative activity (%)” value came out at 86%.

As for Triton X-100, at sorbose dehydrogenase (setting [6]), the “Relative activity (%)” value is given as 39%.

B1: sorbose dehydrogenase (Sinorhizobium meliloti 1021) (protein)
chain: MMEGFDYVIVGGGSSGCVLAARLSENPSVRVCLIEAGGRDRHPLIHMPVGFAKLTAGPMTWGLTTAPQKHANNREIPYAQARVLGGGSSINAEVYTRGHPRDYDRWVEEGADGWSFQEVKPYFLRSEGNTILSGEWHGTDGPLGVSNLPDPQPMTRAFVQSCQELGIPYNPDFNGPVQEGAGVYQTTIRNSRRCSAAVGYLRPALARKNLMLITGALVLRIVFQGRRAVGVEYSTGGAAKIARAESEVLVTSGAIGTPKLMMLSGVGPAASLRSHGIDVVQDMAGVGQNLHDHFGVDIVAELKGHDSLDKYNKFHWMLLAGIEYALFKSGPVASNVVEGGAFWYGDRASPYPDLQFHFLAGAGAEAGVPSVPKGSSGVTLNSYTVRPKSRGSVTLRSADPRALPIVDPNFLDDPDDLRISVEGIRISREIFGQPSLQKYIKTIRFPDESVRTQADFEAYARQYGRTSYHPTCTCKMGRDDMSVVDPQLRVHGLDGIRICDSSVMPSLVGSNTNAATIMIGEKAADLIRGNI
In the case of B1, the Km in series [1] is given as 65.6 mM; in series [2], 82.5 mM.

B2: sorbose dehydrogenase: recombinant sorbose dehydrogenase from Sinorhizobium sp. 97507, amino acid sequence SEQ ID NO: 2, produced in E. coli JM109/pUCNNT2_AGD1 (protein)
chain: B1 chain
modifications: Sinorhizobium sp. 97507
In the case of B2, the “Optimal pH” value in series [3] amounted to 8.0. Besides, in series [4], the Optimal temperature entry was “around 60 °C”. In series [5] (45° C. for ten minutes), the “Residual ratio of enzyme activity” value was determined as 77%. Moreover, the “Temperature at which the enzyme is stable” value in series [5] (ten minutes) was not above 45 °C.
